Values quoted from earlier work, collected in paper PMC6263114.

Biological target: transferrin receptor (TfR) (Homo sapiens) (UniProt P02786)
Sequence (P02786 89-760): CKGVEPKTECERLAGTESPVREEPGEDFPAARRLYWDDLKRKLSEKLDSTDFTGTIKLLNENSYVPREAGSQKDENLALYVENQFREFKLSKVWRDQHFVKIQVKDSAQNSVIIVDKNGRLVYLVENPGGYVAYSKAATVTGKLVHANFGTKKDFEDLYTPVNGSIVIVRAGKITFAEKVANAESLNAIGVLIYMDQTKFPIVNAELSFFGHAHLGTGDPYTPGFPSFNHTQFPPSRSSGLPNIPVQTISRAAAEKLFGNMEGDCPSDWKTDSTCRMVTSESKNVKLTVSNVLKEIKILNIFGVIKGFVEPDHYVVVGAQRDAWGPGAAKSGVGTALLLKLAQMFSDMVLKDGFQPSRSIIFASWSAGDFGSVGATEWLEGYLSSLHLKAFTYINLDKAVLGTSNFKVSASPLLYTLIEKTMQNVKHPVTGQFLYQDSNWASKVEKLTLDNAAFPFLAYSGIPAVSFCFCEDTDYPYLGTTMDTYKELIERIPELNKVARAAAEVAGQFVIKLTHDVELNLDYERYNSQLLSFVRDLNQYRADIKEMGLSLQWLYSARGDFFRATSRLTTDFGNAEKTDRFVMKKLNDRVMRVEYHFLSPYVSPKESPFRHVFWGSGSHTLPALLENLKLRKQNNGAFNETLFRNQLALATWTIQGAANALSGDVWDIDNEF

For T7 peptide, the Kd is listed as 10 nM.
